Test results from patent US20090298778A1.
Non-standard residues stand in square brackets, D forms with d. No end group written: not given here. Cit = NC(=O)NCCC[C@H](N)C(=O)O

Experiments:
[1] = molecular target: mixture of ACPA-positive IgGs (IgG fraction of an equal-parts mixture of 38 sera from patients suffering from RA having a high serum ACPA titer); experiment: competition ELISA: soluble competitor preincubated 2 h with IgG ACPA+ (16 µg/ml), binding to coated citrullinated fibrinogen
[2] = molecular target: mixture of ACPA-positive IgGs (IgG fraction of an equal-parts mixture of 38 sera from patients suffering from RA having a high serum ACPA titer); experiment: cell-based or functional assay

percentage inhibition (plateau value) [1]	amount of TNF-α secreted by macrophages; peptide at 0.8 mg/ml as competitor of IC formation on coated citrullinated fibrinogen [2]	amount of TNF-α secreted by macrophages; peptide at 4 mg/ml as competitor of IC formation on coated citrullinated fibrinogen [2]	Binder
70%			mixture of α36-50cit38, 42 and β60-74cit60, 72, 74 peptides (also: mixture of two free peptides, not a complex) peptide 1: GP[Cit]VVE[Cit]HQSACKDS peptide 2: [Cit]PAPPPISGGGY[Cit]A[Cit]-NH2
15%			GP[Cit]VVE[Cit]HQSACKDS [α36-50cit38, 42 peptide]
60%	40 pg/mL	< 20 pg/mL	[Cit]PAPPPISGGGY[Cit]A[Cit]-NH2 (N-terminus assumed; SMILES CC[C@H](C)[C@H](NC(=O)[C@@H]1CCCN1C(=O)[C@@H]1CCCN1C(=O)[C@@H]1CCCN1C(=O)[C@H](C)NC(=O)[C@@H]1CCCN1C(=O)[C@@H](N)CCCNC(N)=O)C(=O)N[C@@H](CO)C(=O)NCC(=O)NCC(=O)NCC(=O)N[C@@H](Cc1ccc(O)cc1)C(=O)N[C@@H](CCCNC(N)=O)C(=O)N[C@@H](C)C(=O)N[C@@H](CCCNC(N)=O)C(N)=O) [β60-74cit60, 72, 74 peptide]
